# Measured values as given in patent publication US20260201015A1 (published 2026).
# T1: parathyroid hormone (PTH) peptide (UniProt P01270 32-65, TAMRA label in FP assays (PTH-TAMRA), site not stated; biotinylated in yeast display)
# T1 peptide: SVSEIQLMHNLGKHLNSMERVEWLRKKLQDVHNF
# T2: secretin (SCT) (UniProt P09683 28-54, fluorescently labeled (FAM or TAMRA) in FP assays, site not stated)
# T2 peptide: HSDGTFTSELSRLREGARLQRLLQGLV
# What was measured:
# [1] = target: T1, parathyroid hormone (PTH) peptide; experiment: Split NanoBiT titration
# [2] = target: T2, secretin (SCT); experiment: FP
# [3] = target: glucagon (GCG) (UniProt P01275 53-81, fluorescently labeled (FAM or TAMRA) in FP assays, site not stated; biotinylated in yeast display); experiment: FP
# Sequence of glucagon (GCG) (P01275 53-81): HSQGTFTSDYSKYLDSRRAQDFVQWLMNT
Binder,Kd [1] [nM],Kd [2] [nM],Kd [3] [nM]
parametrically designed PTH binder (SEQ ID NO: 1) (designed binder) SQELIEELIKLAKELAEIKDEEERRKIKRELERLAEELKEAPASSLLRALALLVIALALIQAAESEEERERARELLERLEELLRELEKQITDERFKEILRELEELAKELKKQL,> 1000,–,–
"GCG_C09 (RF Diffusion/Partial diffusion), partially diffused GCG binder, SEQ ID NO: 8 (designed binder) SMEKLAEIMQEIIEAYQEVKDAFFKFIKAVHEGAPEEELKKYLEKMKEALEKMKELLERLEKEAKKVIEENKDKKLELKVLLMLRLAYLLLKVSIELTKIAAEKLGDKELVEELEKESKEVEKKIKELEERIKKLLEEVDDEELKEAYKEVEEMEKEAEKFLEKMRKV",–,1.42,< 0.5
